Laboratory results: publication PMC4122339, “Carbonic Anhydrase Generates CO2 and H^+ That Drive Spider Silk Formation Via Opposite Effects on the Terminal Domains” (PLoS Biology, 2014)

Target: the molecule itself
Assay: NMR structure; solution NMR at 298 K; 1 mM protein in 20 mM sodium phosphate pH 6.8, 20 mM NaCl; intermolecular NOEs from a 13C/15N-filtered NOESY on a 50% labelled / 50% unlabelled sample, used as distance restraints with an upper limit of 5 Å

B1: Araneus ventricosus minor ampullate spidroin (MiSp) C-terminal domain, truncated construct (residues 31-150 of the 150-residue C-terminal part) (domain or fragment)
chain: VTSGGYGYGTSAAAGAGVAAGSYAGAVNRLSSAEAASRVSSNIAAIASGGASALPSVISNIYSGVVASGVSSNEALIQALLELLSALVHVLSSASIGNVSSVGVDSTLNVVQDSVGQYVG
modifications: uniformly 13C/15N-labelled (a mixed sample of 50% 13C/15N-labelled and 50% unlabelled protein was used for the intermolecular NOEs)
notes: C-terminal domain of minor ampullate spidroin (MiSp), Araneus ventricosus; residues 31-150 of the printed 150-residue construct; PDB 2MFZ would settle this; also called A. ventricosus MiSp CT; source: E. coli BL21 (DE3), minimal medium, purified (Ni-NTA, thrombin cleavage, Ni-NTA); not shown: His tag-Thioredoxin-His tag, N-terminal, cleaved
  binding result: binds
